# Reference: patent US20140322759
# Numbering of substitutions follows the chain as printed.
# Experiments:
# Assay in all cases: EMSA
# [1] = target: T1, phi29 DNA polymerase F526L F526L (Bacillus phage phi29) (UniProt P03680); conditions: SD 24.2; unit not given (μM in assay); pH 7.9, 66 mM K-acetate, 30 C
# T1 sequence: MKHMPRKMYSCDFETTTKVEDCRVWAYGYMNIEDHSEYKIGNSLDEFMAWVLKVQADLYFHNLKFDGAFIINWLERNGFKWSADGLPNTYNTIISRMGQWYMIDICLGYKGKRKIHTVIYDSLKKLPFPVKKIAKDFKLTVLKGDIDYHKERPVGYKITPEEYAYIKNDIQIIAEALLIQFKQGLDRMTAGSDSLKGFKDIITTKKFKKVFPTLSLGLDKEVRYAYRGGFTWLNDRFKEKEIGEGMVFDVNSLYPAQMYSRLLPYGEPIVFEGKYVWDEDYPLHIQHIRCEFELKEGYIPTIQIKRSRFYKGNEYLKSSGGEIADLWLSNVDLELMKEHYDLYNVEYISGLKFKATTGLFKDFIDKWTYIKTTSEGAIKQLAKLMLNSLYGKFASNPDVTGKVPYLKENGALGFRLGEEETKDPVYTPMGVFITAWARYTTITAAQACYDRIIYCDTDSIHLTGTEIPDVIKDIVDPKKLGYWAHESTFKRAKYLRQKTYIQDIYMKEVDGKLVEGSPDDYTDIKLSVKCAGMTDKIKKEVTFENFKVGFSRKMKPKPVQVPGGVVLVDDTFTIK
# [2] = target: T2, phi29 DNA polymerase G197D G197D (Bacillus phage phi29) (UniProt P03680); conditions: SD 25.7; unit not given (μM in assay); pH 7.9, 66 mM K-acetate, 30 C
# T2 sequence: T1 sequence with G197D, L526F
# [3] = target: T3, phi29 DNA polymerase K512E K512E (Bacillus phage phi29) (UniProt P03680); conditions: SD 27.6; unit not given (μM in assay); pH 7.9, 66 mM K-acetate, 30 C
# T3 sequence: T1 sequence with K512E, L526F
# [4] = target: T4, phi29 DNA polymerase Q497P Q497P (Bacillus phage phi29) (UniProt P03680); conditions: SD 50.2; unit not given (μM in assay); pH 7.9, 66 mM K-acetate, 30 C
# T4 sequence: T1 sequence with Q497P, L526F
sequence,measurement,setting,value
GATCACAGTGAGTAC / TCTATTGTACTCACTGTGATC [15-mer/21-mer primer/template],Kd,[1],53 µM
same,Kd,[2],51 µM
same,Kd,[3],54 µM
same,Kd,[4],73 µM
